Test results as given in US20080280831A1 (BOARD OF REGENTS OF THE UNIVERSITY OF OKLAHOMA, published 2008).

T1: Factor VIIa (purified human, Enzyme Research Laboratories) (human, UniProt P08709 61-466)
T1 sequence (looked up): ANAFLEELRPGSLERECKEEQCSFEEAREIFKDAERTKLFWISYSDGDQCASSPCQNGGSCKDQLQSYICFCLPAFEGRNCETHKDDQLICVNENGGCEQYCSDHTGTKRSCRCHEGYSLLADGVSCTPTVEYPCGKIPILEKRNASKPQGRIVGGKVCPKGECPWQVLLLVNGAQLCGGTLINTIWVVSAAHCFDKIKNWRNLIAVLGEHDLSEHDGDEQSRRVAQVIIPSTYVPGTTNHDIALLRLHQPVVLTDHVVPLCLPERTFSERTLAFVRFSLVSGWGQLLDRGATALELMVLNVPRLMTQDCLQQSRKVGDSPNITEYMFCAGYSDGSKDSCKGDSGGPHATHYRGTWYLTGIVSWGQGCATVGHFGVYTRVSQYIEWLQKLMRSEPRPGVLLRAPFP


Target: T1, Factor VIIa (purified human, Enzyme …)
Assay: Titration of cofactor against 5 nM Factor VIIa; increase in amidolytic activity (Chromozym t-PA); no phospholipid vesicles
Protocol: After 10 min at room temperature, Chromozym t-PA was added (1 mM final) and the initial rate of substrate hydrolysis was measured at 405 nm using a microplate reader (Molecular Devices, Menlo Park, Calif.). […] Kinetic parameters were calculated using Prism 4 (GraphPad Software, San Diego, Calif.).

Row | Binder | Kd
1 | recombinant sTF (TF2-219) (receptor, also called soluble TF; soluble Tissue Factor) GTTNTVAAYNLTWKSTNFKTILEWEPKPVNQVYTVQISTKSGDWKSKCFYTTDTECDLTDEIVKDVKQTYLARVFSYPAGNVESTGSAGEPLYENSPEFTPYLETNLGQPTIQSFEQVGTKVNVTVEDERTLVRRNNTFLSLRDVFGKDLIYTLYYWKSSSSGKKTAKTNTNEFLIDVDKGENYCFSVQAVIPSRTVNRKSTDSPVECMGQEKGEFRE | 8.17 nM
2 | sTF-annexin V chimeric protein (other, Expressed in the E. coli periplasm from pET-22b(+), whose signal peptide is removed; also called sTF-annV; sTF-AnnV) GTTNTVAAYNLTWKSTNFKTILEWEPKPVNQVYTVQISTKSGDWKSKCFYTTDTECDLTDEIVKDVKQTYLARVFSYPAGNVESTGSAGEPLYENSPEFTPYLETNLGQPTIQSFEQVGTKVNVTVEDERTLVRRNNTFLSLRDVFGKDLIYTLYYWKSSSSGKKTAKTNTNEFLIDVDKGENYCFSVQAVIPSRTVNRKSTDSPVECMGQEKGEFREGGGGSGGGGSGGGGSAQVLRGTVTDFPGFDERADAETLRKAMKGLGTDEESILTLLTSRSNAQRQEISAAFKTLFGRDLLDDLKSELTGKFEKLIVALMKPSRLYDAYELKHALKGAGTNEKVLTEIIASRTPEELRAIKQVYEEEYGSSLEDDVVGDTSGYYQRMLVVLLQANRDPDAGIDEAQVEQDAQALFQAGELKWGTDEEKFITIFGTRSVSHLRKVFDKYMTISGFQIEETIDRETSGNLEQLLLAVVKSIRSIPAYLAETLYYAMKGAGTDDHTLIRVMVSRSEIDLFNIRKEFRKNFATSLYSMIKGDTSGDYKKALLLLCGEDDPLEHHHHHH | 7.05 nM
